This passage reports stoichiometry N results from publication PMC8000399.

The target of the assay is adzuki bean (Vigna angularis) β-vignin protein (Vigna angularis (adzuki bean)). Nature of the assay: SEC; gel molecular sieving on a Sephadex G-200 column (50 cm x 2.5 cm) under native condition, 0.58 mL/min, room temperature; calibrated with standard proteins; apparent molecular size compared with the subunits' Mr from SDS-PAGE. A general note: SEC sorts molecules by how far they enter the pores of the column.

For orientation: stoichiometry N means the number of molecules, sites or subunits per partner or assembly. Take “adzuki bean (Vigna angularis) β-vignin protein (natural protein)”: the stoichiometry N amounted to 3.
